According to publication PMC7424515, “Molecular characterization of pyridoxine 5′-phosphate oxidase and its pathogenic forms associated with neonatal epileptic encephalopathy” (Scientific Reports, 2020):

B1: human pyridoxine 5′-phosphate oxidase (PNPO), wild type (enzyme)
chain: MTCWLRGVTATFGRPAEWPGYLSHLCGRSAAMDLGPMRKSYRGDREAFEETHLTSLDPVKQFAAWFEEAVQCPDIGEANAMCLATCTRDGKPSARMLLLKGFGKDGFRFFTNFESRKGKELDSNPFASLVFYWEPLNRQVRVEGPVKKLPEEEAECYFHSRPKSSQIGAVVSHQSSVIPDREYLRKKNEELEQLYQDQEVPKPKSWGGYVLYPQVMEFWQGQTNRLHDRIVFRRGLPTGDSPLGPMTHRGEEDWLYERLAP
notes: also called wild type PNPO; pyridoxal 5′-phosphate synthase; source: E. coli, pET28-PNPO, purified (HisTrap metal-chelation chromatography)
B2: human PNPO R116Q/R225H double variant (enzyme)
chain: MTCWLRGVTATFGRPAEWPGYLSHLCGRSAAMDLGPMRKSYRGDREAFEETHLTSLDPVKQFAAWFEEAVQCPDIGEANAMCLATCTRDGKPSARMLLLKGFGKDGFRFFTNFESQKGKELDSNPFASLVFYWEPLNRQVRVEGPVKKLPEEEAECYFHSRPKSSQIGAVVSHQSSVIPDREYLRKKNEELEQLYQDQEVPKPKSWGGYVLYPQVMEFWQGQTNHLHDRIVFRRGLPTGDSPLGPMTHRGEEDWLYERLAP
notes: Combination of replacements found together in PNPOD patients; source: E. coli Rosetta(λDE3), purified (HisTrap metal-chelation chromatography)
B3: human PNPO R141C variant (enzyme)
chain: MTCWLRGVTATFGRPAEWPGYLSHLCGRSAAMDLGPMRKSYRGDREAFEETHLTSLDPVKQFAAWFEEAVQCPDIGEANAMCLATCTRDGKPSARMLLLKGFGKDGFRFFTNFESRKGKELDSNPFASLVFYWEPLNRQVCVEGPVKKLPEEEAECYFHSRPKSSQIGAVVSHQSSVIPDREYLRKKNEELEQLYQDQEVPKPKSWGGYVLYPQVMEFWQGQTNRLHDRIVFRRGLPTGDSPLGPMTHRGEEDWLYERLAP
notes: Pathogenic variant found in a PNPOD patient; source: E. coli Rosetta(λDE3), purified (HisTrap metal-chelation chromatography)
B4: human PNPO G118R variant (enzyme)
chain: MTCWLRGVTATFGRPAEWPGYLSHLCGRSAAMDLGPMRKSYRGDREAFEETHLTSLDPVKQFAAWFEEAVQCPDIGEANAMCLATCTRDGKPSARMLLLKGFGKDGFRFFTNFESRKRKELDSNPFASLVFYWEPLNRQVRVEGPVKKLPEEEAECYFHSRPKSSQIGAVVSHQSSVIPDREYLRKKNEELEQLYQDQEVPKPKSWGGYVLYPQVMEFWQGQTNRLHDRIVFRRGLPTGDSPLGPMTHRGEEDWLYERLAP
notes: Pathogenic variant found in PNPOD patients; source: E. coli Rosetta(λDE3), purified (HisTrap metal-chelation chromatography)
B5: human PNPO R225H variant (enzyme)
chain: MTCWLRGVTATFGRPAEWPGYLSHLCGRSAAMDLGPMRKSYRGDREAFEETHLTSLDPVKQFAAWFEEAVQCPDIGEANAMCLATCTRDGKPSARMLLLKGFGKDGFRFFTNFESRKGKELDSNPFASLVFYWEPLNRQVRVEGPVKKLPEEEAECYFHSRPKSSQIGAVVSHQSSVIPDREYLRKKNEELEQLYQDQEVPKPKSWGGYVLYPQVMEFWQGQTNHLHDRIVFRRGLPTGDSPLGPMTHRGEEDWLYERLAP
notes: as for B4

Biological target: the molecule itself
Experiment: SEC; Superdex 200 10/300 GL; 20 mM potassium-phosphate buffer, pH 7.6, 150 mM NaCl, 5 mM 2-mercaptoethanol; oligomeric state from elution profile

Stoichiometry N, 2:
B1
B2
B3
B4
B5

biological target: human PNPO X262Q variant (human); experiment: as above

Stoichiometry N, 2:
human PNPO X262Q variant (enzyme)
